Experimental findings from PMC9371921, “Strand annealing and motor driven activities of SMARCAL1 and ZRANB3 are stimulated by RAD51 and the paralog complex” (Nucleic Acids Research, 2022) are described below.

The target of the data set is T1, RAD51B;RAD51C;RAD51D;XRCC2 (Homo sapiens;Homo sapiens;Homo …, UniProt O15315;O43502;O75771;O43543 1-384;1-376;1-328;1-280, |||).
T1 sequence 1: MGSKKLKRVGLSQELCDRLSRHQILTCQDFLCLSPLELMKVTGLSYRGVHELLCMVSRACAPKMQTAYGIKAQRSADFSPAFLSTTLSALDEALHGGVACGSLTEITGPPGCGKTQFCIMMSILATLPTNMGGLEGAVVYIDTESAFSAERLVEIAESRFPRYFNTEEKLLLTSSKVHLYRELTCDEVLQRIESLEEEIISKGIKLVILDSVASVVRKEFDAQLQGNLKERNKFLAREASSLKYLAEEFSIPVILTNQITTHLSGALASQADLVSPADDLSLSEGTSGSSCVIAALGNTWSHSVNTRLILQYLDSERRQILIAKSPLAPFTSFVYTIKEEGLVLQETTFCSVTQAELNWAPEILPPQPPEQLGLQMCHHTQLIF
T1 sequence 2: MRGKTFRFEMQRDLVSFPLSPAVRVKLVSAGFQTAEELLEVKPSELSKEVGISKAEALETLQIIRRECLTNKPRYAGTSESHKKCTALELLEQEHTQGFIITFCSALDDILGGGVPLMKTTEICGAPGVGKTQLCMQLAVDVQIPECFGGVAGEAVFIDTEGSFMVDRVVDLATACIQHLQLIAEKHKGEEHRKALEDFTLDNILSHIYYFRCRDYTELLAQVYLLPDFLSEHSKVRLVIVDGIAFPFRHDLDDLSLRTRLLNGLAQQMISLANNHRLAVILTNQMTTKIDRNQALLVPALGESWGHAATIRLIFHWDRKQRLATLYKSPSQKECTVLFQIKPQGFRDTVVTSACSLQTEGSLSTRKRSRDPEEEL
T1 sequence 3: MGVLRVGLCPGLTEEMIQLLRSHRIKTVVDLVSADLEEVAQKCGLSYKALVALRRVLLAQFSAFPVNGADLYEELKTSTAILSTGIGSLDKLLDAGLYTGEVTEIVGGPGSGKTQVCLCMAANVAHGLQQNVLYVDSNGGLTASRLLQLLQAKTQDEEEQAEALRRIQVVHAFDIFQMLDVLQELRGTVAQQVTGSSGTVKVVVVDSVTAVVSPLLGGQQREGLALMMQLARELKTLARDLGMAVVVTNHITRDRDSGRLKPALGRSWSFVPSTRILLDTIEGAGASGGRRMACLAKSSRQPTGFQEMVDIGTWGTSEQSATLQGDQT
T1 sequence 4: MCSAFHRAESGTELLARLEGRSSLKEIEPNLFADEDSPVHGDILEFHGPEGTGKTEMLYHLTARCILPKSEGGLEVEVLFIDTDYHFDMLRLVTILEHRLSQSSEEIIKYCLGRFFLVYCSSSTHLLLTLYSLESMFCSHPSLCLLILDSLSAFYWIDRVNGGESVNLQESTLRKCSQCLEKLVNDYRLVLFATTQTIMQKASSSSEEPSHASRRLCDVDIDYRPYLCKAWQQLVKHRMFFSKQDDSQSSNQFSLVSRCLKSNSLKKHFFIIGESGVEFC
In words: EMSA; 1 mM ATP, 1 mM Mg acetate; EMSA: 1 nM DNA, 20 mM Tris-acetate pH 7.5, 1 mM DTT, 1 mM magnesium acetate, 0.1 mg/ml BSA, 1 mM ATP, 30 min at 37 C; 6% PAGE in 1x TBE at 4 C. The following applies: protein: recombinant;recombinant;recombinant;recombinant; tags: FLAG;10xHis;none;none; copies: 1;1;1;1; label: 5'-32P. In general terms: In EMSA bound probe runs differently from free probe, usually more slowly.

B1: 70-mer ssDNA (PC210) (ssDNA)
DNA: GTAAGTGCCGCGGTGCGGGTGCCAGGGCGTGCCCTTGGGCTCCCCGGGCGCGTACTCCACCTCATGCATC
In the case of B1, the binding result was “binds”.
